Data on 4 molecules can be found in US20240417476A1 (ATYR PHARMA, published 2024).

Ends that are not written are not given here.

Test [1] deals with T1, Human NRP2a v2 (926aa) in pBiT2.1-C with C-terminal split NanoLuc tag, expressed in Expi293 cells (human, UniProt O60462 23-931).
T1 construct: cDNA Origene RCC220706, isoform 2; also called pBiT2.1-C-NRP2v2 (isoform 2); NRP2 v2; not shown: vector-encoded spacer and small split NanoLuc fragment (pBiT2.1-C)
Put plainly: NanoBiT complementation of NRP2a v2 and CCR7 truncated after aa331 in Expi293 cells; 100 nM CCL21; normalized to wells without ligand.

Test [2] deals with T2, Human NRP2a v1 (931aa) with C-terminal split NanoLuc tag, expressed in Expi293F cells (human, UniProt O60462 23-931).
T2 construct: Made by mutagenesis from the isoform 2 / isoform 5 vectors; not shown: vector-encoded spacer and split NanoLuc fragment (Promega pBiT vector)
As to the kind of experiment: NanoBiT split-luciferase complementation of tagged NRP2 and CCR7 in Expi293F cells; 100 nM CCL21 or CCL19 added; normalized to wells without ligand.

Test [3] addresses T1, Human NRP2a v2 (926aa) in pBiT2.1-C …. The test is described as above.
Description: The vectors were then transfected into Expi293F cells by Expifectamine transfection reagent (Fisher Scientific) at 1 ug per mL at a density of 1 million cells per mL. Approximately 16-20 hours post transfection, cells were washed, plated at 100,000 cells/well in luminometer plates, and then cell permeable luciferase substrate was added and luminescence was monitored on a GloMax96 (Promega) until stabilization of luminescent signal was achieved.
For test [4], the target named is T3, NRP2b peptide (biotinylated) (human, biotin-conjugated, site not stated).
T3 construct: also called NRP2b isoform specific peptide
T3 peptide: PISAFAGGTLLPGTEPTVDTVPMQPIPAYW
As to the kind of experiment: BLI, peptide on sensor. In general terms: BLI is a label-free optical method that tracks binding on a fibre tip over time.

Test [5] concerns the target Short NRP2A peptide (biotinylated) (human, biotin-conjugated, site not stated). As to the kind of experiment: BLI, peptide on sensor.
Test [6] concerns the target T4, NRP2a_scan 1 peptide (biotinylated) (human, also: biotin-conjugated, site not given here).
T4 peptide: VDIPEIHEREGY
Put plainly: BLI, peptide on sensor.

For test [7], the target named is T5, NRP2a_scan 2 peptide (biotinylated) (human, also: biotin-conjugated, site not given here).
T5 peptide: PEIHEREGYEDE
As to the kind of experiment: BLI, peptide on sensor.

Test [8] concerns the target T6, NRP2a_scan 3 peptide (biotinylated) (human, also: biotin-conjugated, site not given here).
T6 peptide: HEREGYEDEIDD
Put plainly: BLI, peptide on sensor.

Test [9] addresses T7, NRP2a_scan 4 peptide (biotinylated) (human, also: biotin-conjugated, site not given here).
T7 peptide: EGYEDEIDDEYE
Put plainly: BLI, peptide on sensor.

Test [10] has as its target T8, NRP2a_scan 5 peptide (biotinylated) (human, also: biotin-conjugated, site not given here).
T8 peptide: EDEIDDEYEVDW
As to the kind of experiment: BLI, peptide on sensor.

The target of test [11] is T9, NRP2a_scan 6 peptide (biotinylated) (human, also: biotin-conjugated, site not given here).
T9 peptide: IDDEYEVDWSNS
Put plainly: BLI, peptide on sensor.

Test [12] addresses T10, NRP2a_scan 7 peptide (biotinylated) (human, also: biotin-conjugated, site not given here).
T10 peptide: EYEVDWSNSSSA
As to the kind of experiment: BLI, peptide on sensor.

The target in test [13] is T11, Mid-NRP2A peptide (biotinylated) (human, biotin-conjugated, site not stated).
T11 peptide: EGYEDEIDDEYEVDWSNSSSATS
Put plainly: BLI, peptide on sensor.

Test [14] has as its target T12, mNRP2b peptide (biotinylated) (mouse, biotin-conjugated, site not stated). Put plainly: BLI, peptide on sensor.
For test [15], the target named is T13, NRP2A peptide (biotinylated) (human, biotin-conjugated, site not stated).
T13 construct: also called NPR2A; NRP2a specific peptide
Put plainly: BLI, isoform peptide on sensor, 50 nM antibody.

Test [16] concerns the target T14, human NRP2a v2 expressed on Expi293F cells (human, UniProt O60462 23-931).
T14 construct: cDNA Origene RCC220706; also called NRP2 v2
As to the kind of experiment: flow cytometry, Expi293F cells transfected with the target, fluorescent anti-mouse secondary; MFI signal relative to mock-transfected cells. In general terms: Flow cytometry measures light scatter and fluorescence of single cells or particles in a stream.
Description: (§1) Signal to noise was calculated as the staining intensity of transfected cells compared to an un-transfected ‘mock’ population.

For test [17], the target named is T15, human NRP2b expressed on Expi293F cells (human).
T15 construct: also called full length NRP2b
T15 chain: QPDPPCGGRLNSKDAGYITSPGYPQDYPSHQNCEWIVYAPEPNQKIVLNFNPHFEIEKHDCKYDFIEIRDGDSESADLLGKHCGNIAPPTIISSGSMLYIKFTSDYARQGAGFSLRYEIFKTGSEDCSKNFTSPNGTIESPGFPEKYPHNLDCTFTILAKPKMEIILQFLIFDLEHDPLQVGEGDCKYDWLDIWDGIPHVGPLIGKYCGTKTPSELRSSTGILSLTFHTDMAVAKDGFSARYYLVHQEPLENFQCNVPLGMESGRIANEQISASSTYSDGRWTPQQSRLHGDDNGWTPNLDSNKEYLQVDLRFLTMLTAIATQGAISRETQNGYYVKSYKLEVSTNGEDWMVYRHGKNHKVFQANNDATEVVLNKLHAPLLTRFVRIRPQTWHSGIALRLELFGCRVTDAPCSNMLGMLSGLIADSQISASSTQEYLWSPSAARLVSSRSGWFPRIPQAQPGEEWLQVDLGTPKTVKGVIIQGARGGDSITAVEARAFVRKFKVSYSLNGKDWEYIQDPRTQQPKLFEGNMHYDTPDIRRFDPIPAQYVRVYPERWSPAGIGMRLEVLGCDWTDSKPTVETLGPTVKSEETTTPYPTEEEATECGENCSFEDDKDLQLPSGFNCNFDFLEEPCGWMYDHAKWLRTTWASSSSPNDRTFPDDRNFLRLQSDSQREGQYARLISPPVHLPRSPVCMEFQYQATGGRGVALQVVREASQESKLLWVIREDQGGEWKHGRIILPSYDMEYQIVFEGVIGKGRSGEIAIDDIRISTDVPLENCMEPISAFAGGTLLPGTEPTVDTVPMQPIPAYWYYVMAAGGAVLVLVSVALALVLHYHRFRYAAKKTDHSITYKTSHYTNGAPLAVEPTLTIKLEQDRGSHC
The description is as above.
Description: as §1

The target of the next test is T16, NRP2v3.
T16 construct: not the NanoLuc-tagged construct m33; also called human NRP2 v3 expressed on Expi293F cells; NRP2a v3
T16 chain: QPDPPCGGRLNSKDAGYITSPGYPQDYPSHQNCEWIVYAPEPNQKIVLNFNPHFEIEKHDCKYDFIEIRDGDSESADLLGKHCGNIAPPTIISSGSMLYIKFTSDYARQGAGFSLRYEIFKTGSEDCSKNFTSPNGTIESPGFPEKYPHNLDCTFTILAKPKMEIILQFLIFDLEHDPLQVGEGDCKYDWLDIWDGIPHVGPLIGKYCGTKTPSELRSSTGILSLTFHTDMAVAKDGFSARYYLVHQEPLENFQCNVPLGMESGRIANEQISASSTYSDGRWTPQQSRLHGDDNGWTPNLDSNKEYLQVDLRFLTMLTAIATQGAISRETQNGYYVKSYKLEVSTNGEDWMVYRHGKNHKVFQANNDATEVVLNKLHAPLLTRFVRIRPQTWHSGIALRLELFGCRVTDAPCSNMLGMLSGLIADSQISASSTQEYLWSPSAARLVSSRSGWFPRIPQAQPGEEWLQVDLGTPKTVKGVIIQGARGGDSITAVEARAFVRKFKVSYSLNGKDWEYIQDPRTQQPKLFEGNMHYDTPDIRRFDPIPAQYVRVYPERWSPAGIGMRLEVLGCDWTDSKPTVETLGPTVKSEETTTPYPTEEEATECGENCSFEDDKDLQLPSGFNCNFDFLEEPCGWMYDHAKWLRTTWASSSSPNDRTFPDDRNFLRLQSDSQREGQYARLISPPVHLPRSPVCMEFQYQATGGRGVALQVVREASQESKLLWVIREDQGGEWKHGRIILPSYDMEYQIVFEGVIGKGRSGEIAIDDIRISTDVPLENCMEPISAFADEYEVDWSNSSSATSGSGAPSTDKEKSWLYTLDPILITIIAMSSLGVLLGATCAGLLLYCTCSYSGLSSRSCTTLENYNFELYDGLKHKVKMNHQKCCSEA
Described as above.

For test [18], the target named is T17, Mid-mNRP2A peptide (biotinylated) (mouse, biotin-conjugated, site not stated).
T17 peptide: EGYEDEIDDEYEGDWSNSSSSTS
Put plainly: BLI, peptide on sensor.

Test [19] has as its target T18, mNRP2A peptide (biotinylated) (mouse, biotin-conjugated, site not stated).
T18 construct: also called mouse NRP2 isoform a peptide
As to the kind of experiment: BLI, peptide on sensor, 50 nM antibody.

Test [20] has as its target T12, mNRP2b peptide (biotinylated). Put plainly: BLI, peptide on sensor, 50 nM antibody.

T12 sequence (peptide, as listed by the source): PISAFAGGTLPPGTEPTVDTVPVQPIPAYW
Description for NRP2v3: as §1

B1: CCR7 truncated after aa331 (without its C-terminal cytoplasmic sequence) in pBiT1.1-C with split NanoLuc tag, expressed in Expi293 cells (receptor)
chain: QDEVTDDYIGDNTTVDYTLFESLCSKKDVRNFKAWFLPIMYSIICFVGLLGNGLVVLTYIYFKRLKTMTDTYLLNLAVADILFLLTLPFWAYSAAKSWVFGVHFCKLIFAIYKMSFFSGMLLLLCISIDRYVAIVQAVSAHRHRARVLLISKLSCVGIWILATVLSIPELLYSDLQRSSSEQAMRCSLITEHVEAFITIQVAQMVIGFLVPLLAMSFCYLVIIRTLLQARNFERNKAIKVIIAVVVVFIVFQLPYNGVVLAQTVANFNITSSTCELSKQLNIAYDVTYSLACVRCCVNPFLYAFIGV
notes: Membrane protein on cells, cytoplasmic tail removed; not shown: vector-encoded spacer and large split NanoLuc fragment (pBiT1.1-C)
Regarding B1, the binding result in test [1] is “binds”.

B2: CCR7, full coding sequence, in pBiT1.1-C with C-terminal split NanoLuc tag, expressed in Expi293F cells (receptor)
chain: QDEVTDDYIGDNTTVDYTLFESLCSKKDVRNFKAWFLPIMYSIICFVGLLGNGLVVLTYIYFKRLKTMTDTYLLNLAVADILFLLTLPFWAYSAAKSWVFGVHFCKLIFAIYKMSFFSGMLLLLCISIDRYVAIVQAVSAHRHRARVLLISKLSCVGIWILATVLSIPELLYSDLQRSSSEQAMRCSLITEHVEAFITIQVAQMVIGFLVPLLAMSFCYLVIIRTLLQARNFERNKAIKVIIAVVVVFIVFQLPYNGVVLAQTVANFNITSSTCELSKQLNIAYDVTYSLACVRCCVNPFLYAFIGVKFRNDLFKLFKDLGCLSQEQLRQWSSCRHIRRSSMSVEAETTTTFSP
notes: cDNA Genscript OHu24012; not shown: vector-encoded spacer and large split NanoLuc fragment (pBiT1.1-C)
Consider B2, for which the binding result in [2] and in [3] was “binds” throughout.

B3: aNRP2-37v2 (antibody, V domains shown)
VH: DVKLVESGEGLVKPGGSLKLSCAASGFTFSDYALSWVRQTPEKRLEWVAYISSGGDYIYYADTVRGRFTISRDNARNTLYLQMSSLQSEDTAIYYCTRGGQDDYWGQGTTLTVSS
VL: DVVMTQTPLSLPVILGDQASISCRSSQSLVHSNGNTYLQWYLQKPGQSPKLLIYKVSNRFSGVPDRFSGSGSGTDFTLKISRVEAEDLGVYFCSQSTHVPFTFGSGTNLEIK
notes: Mouse monoclonal (captured by anti-murine kappa, detected with anti-mouse IgG)
As for B3, the binding result in test [4], in [5], in test [6], in test [7], in test [8] and in test [9] was “no binding (tested: 50 nM)” throughout. Moreover, the binding result in [10] is on record as “no binding (tested: 50 nM)”; in [11] it was “no binding (tested: 50 nM)”; in test [12], “no binding (tested: 50 nM)”; in test [13], “no binding (tested: 50 nM)”; in test [14] it was “no binding (tested: 50 nM)”; in [15], “binds”. Further, the binding result in [16] is reported as “binds”; in test [17] it was “no binding”; in the test with NRP2v3 it was “no binding”.

B4: aNRP2-407v2 (antibody, V domains shown)
VH: EVQLQQSGPELVKPGASVTISCKASGYSFTGYYMHWVKQSHVKSLEWIGRINPYNGATSYSQNFKDKASLTIDKSSSTAYMELHSLTSEDSAVYYCAREETTAPFTYWGQGTLVTVSA
VL: DIVMSQSPSSLAVSVGEKVTMSCKSSQSLLYSSNQKNYLAWYQQKPGQSPKLLIYWASTRESGVPDRFTGSGSGTDFTLTISSVQAEDLAVYFCQHYYSYPPTFGGGTKLEIK
notes: Mouse monoclonal
In the case of B4, the binding result in test [5], in [6], in test [7], in [8], in test [9] and in [10] was “no binding (tested: 50 nM)” each time. The binding result is recorded as “no binding (tested: 50 nM)” in [11]; “no binding (tested: 50 nM)” in [12]; “no binding (tested: 50 nM)” in [13]; “no binding (tested: 50 nM)” in test [18]; “binds” in [19]; “binds” in [20]. Moreover, the binding result (in test [15]; in test [16]; with NRP2v3) was “binds” throughout.
